Assay results: publication PMC6894278, “Enzymatic synthesis of L-fucose from L-fuculose using a fucose isomerase from Raoultella sp. and the biochemical and structural analyses of the enzyme” (Biotechnology for Biofuels, 2019)

Experiments:
[1] = molecular target: L-fucose isomerase from Raoultella sp. KDH14 (RdFucI) (Raoultella sp. KDH14); assay: SEC; analytical size-exclusion chromatography, Superdex 200 10/300 GL, 10 mM Tris-HCl, 200 mM NaCl, pH 8.0; calibrated with standard proteins
[2] = molecular target: L-fucose isomerase from Raoultella sp. KDH14 (RdFucI) (Raoultella sp. KDH14); assay: crystal structure; six subunits in the asymmetric unit; crystals grown in 0.1 M HEPES pH 7.5, 20% (w/v) PEG 10,000 at 20 °C; also soaked with 10 mM Mn2+
[3] = substrate: O=C(CO)[C@H](O)[C@H](O)CO; assay: isomerase kinetics, D-ribulose to D-arabinose; type: biochemical, Klebsiella planticola; conditions: 1 mM MnCl2 (general assay); pH and temperature of the kinetics not stated in main text; pH 10.0; 40.0 °C
Protocol: isomerase kinetics, D-ribulose to D-arabinose on RdFucI | Kinetic parameters were determined using L-fuculose and D-ribulose as the substrates

stoichiometry N [1] | stoichiometry N [2] | Molecule | Km [3] | kcat [3] | kcat/Km [3]
6 | 6 | L-fucose isomerase from Raoultella sp. KDH14 (RdFucI) (enzyme) |  |  | 
 |  | RdFucI (Klebsiella planticola) (protein, N-terminal His6 tag (pET28a, NdeI/EcoRI), E. coli BL21(DE3); tag removal not mentioned; homohexamer) MKRISLPKIGIRPVIDGRRMGVRESLEEQTMNMAKATAALISEKLRHASGAQIECVIADTCIAGMAESAACEEKFSSQNVGVTITVTPCWCYGSETIDMDPLRPKAIWGFNGTERPGAVYLAAALAAHSQKGIPAFSIYGHDVQDADDTTIPADVEEKLLRFARAGLAVASMKGKSYLSVGGVSMGIAGSIVDHNFFESWLGMKVQAVDMTELRRRIDQKIYDEVELEMALAWADKNFRYGEDQNAQHYKRDEEQSRAVLKESLLMAMCIRDMMQGNKKLAEKGLVEESLGYNAIAAGFQGQRHWTDQYPNGDTAEALLNSSFDWNGVREPFVVATENDSLNGVAMLMGHQLTGTAQVFADVRTYWSPDAVERVTGQPLTGLAEHGIIHLINSGSAALDGSCKQRDEEGKPTMKPHWEISQKEADACLAATEWCPAIHEYFRGGGYSSRFLTEGGVPFTMTRVNIIKGLGPVLQIAEGWSVELPKAMHDQLDARTNSTWPTTWFAPRLTGKGPFADVYSVMANWGANHGVLTIGHVGADFITLAAMLRIPVCMHNVEEGKIYRPSSWSAHGMDTEGQDYRACQNYGPLYKR | 13.7 ± 1.1 mM | 138 ± 5.69 s⁻¹ | 10100 ± 493 M⁻¹ s⁻¹
